Results published in patent publication US20240369485A1, “FLUORESCENT SENSOR FOR MONITORING CALCIUM DYNAMICS” (priority 2021, published 2024).

How the values were obtained:
[1] = Calcium (Ca^2+) binding assay: fluorescence/absorbance titration of purified protein; conditions: for Aholo/Aapo: absorbance at 569
Experimental: Calcium (Ca^2+) binding assay. 10 μM protein samples of mApple, EGFP, and mCherry variants were titrated with different concentrations of Ca^2+. Data were fitted with a 1:1 binding equation. Fluorescence intensities were collected using a Spectrofluorimeter (Photon Technology International, Inc.) and the absorbance values of Ca^2+-free and Ca^2+-loaded forms were determined using a Shimadzu UV-1601 spectrophotome.
Ca^2+ binding assay. Fluorescence measurements of mApple variants with increasing Ca^2+ concentrations were done in order to obtain the affinity of the sensor for Ca^2+ in vitro. Samples of 10 μM mApple variants with 5 μM EGTA were prepared in triplicate in 1 mL volumes in 10 mM Tris, pH 7.4. The samples were placed in quartz fluorescence cuvettes, and metal ion was titrated into each sample, in a stepwise manner, using 0.1 M and 1 M metal stock solutions. The fluorescence response of the indicator to increasing Ca^2+ concentrations was monitored using a fluorescence spectrophotometer (Photon Technology International, Canada) with the Felix32 fluorescence analysis software. The absorbance spectra before and after titration were obtained using a Shimadzu UV-1601 spectrophotometer.

[2] = Quantum yield, extinction coefficient, and brightness determination; format: physicochemical; design: key to Brightness: extinction coefficient × quantum yield
Experimental: Quantum yield, extinction coefficient, and brightness determination. The quantum yield values of all the variants were determined by measuring the emitted fluorescence intensities and absorbance intensities of the chromophore at different protein concentrations. The wildtype was used as a reference to calculate quantum yield. Brightness was defined as a visual perception in which a source appears to emit or reflect a given amount of light, which was obtained by multiplying the extinction coefficient and the quantum yield.

[3] = pKa determination of the chromophore; format: physicochemical
Experimental: pKa determination. To measure the chromophore pKa of mApple, EGFP, and mCherry variants, the proteins were prepared in buffers (sodium acetate buffer for pH 3-5, MES buffer for pH 5-6, HEPES buffer for pH 6.5-8, TRIS buffer for pH 8.5-9) covering a pH range from 3 to 10. All samples were Incubated at 4° C. overnight, then the following day, the absorbance and fluorescence spectra were collected using a Shimadzu UV-1601 spectrophotometer and the Spectrofluorimeter.

[4] = mCherry based indicators, Ca^2+ induced fluorescence change

B1: mCherry A145E/N196D/K198D: mCherry based indicator attempt, 4 negatively charged residues (protein)
chain: EEDNMAIIKEFMRFKVHMEGSVNGHEFEIEGEGEGRPYEGTQTAKLKVTKGGPLPFAWDILSPQFMYGSKAYVKHPADIPDYLKLSFPEGFKWERVMNFEDGGVVTVTQDSSLQDGEFIYKVKLRGTNFPSDGPVMQKKTMGWEESSERMYPEDGALKGEIKQRLKLKDGGHYDAEVKTTYKAKKPVQLPGAYNVDIDLDITSHNEDYTIVEQYERAEGRHSTGGMDELYK
B1 gave an Fmax/Fmin [1, 4] of 0.93 ± 0.02.

B2: mCherry A145E/N196D/K198D/R216E: mCherry based indicator attempt, 5 negatively charged residues (protein)
chain: EEDNMAIIKEFMRFKVHMEGSVNGHEFEIEGEGEGRPYEGTQTAKLKVTKGGPLPFAWDILSPQFMYGSKAYVKHPADIPDYLKLSFPEGFKWERVMNFEDGGVVTVTQDSSLQDGEFIYKVKLRGTNFPSDGPVMQKKTMGWEESSERMYPEDGALKGEIKQRLKLKDGGHYDAEVKTTYKAKKPVQLPGAYNVDIDLDITSHNEDYTIVEQYEEAEGRHSTGGMDELYK
B2 showed an Fmax/Fmin [1, 4] of 1.05 ± 0.06.

B3: mApple: red fluorescent scaffold protein, SEQ ID NO: 11 (protein)
chain: EENNMAIIKEFMRFKVHMEGSVNGHEFEIEGEGEGRPYEAFQTAKLKVTKGGPLPFAWDILSPQFMYGSKVYIKHPADIPDYFKLSFPEGFRWERVMNFEDGGIIHVNQDSSLQDGVFIYKVKLRGTNFPSDGPVMQKKTMGWEASEERMYPEDGALKSEIKKRLKLKDGGHYAAEVKTTYKAKKPVQLPGAYIVDIKLDIVSHNEDYTIVEQYERAEGRHSTGGMDELYK
In the case of B3, the Fmax/Fmin ([1]; EGFP and mApple variants) is reported as 1.02, the Aholo/Aapo [1] is reported as 1.07 (569) and the Brightness ([2]; scaffold, no apo/holo stated) is reported as 0.37 ± 0.01. The “Extinction coefficient” value ([2]; scaffold, no apo/holo stated) was 75000 M⁻¹ cm⁻¹, the Fluorescence quantum yield ([2]; scaffold, no apo/holo stated) was 0.49 ± 0.01 and the pka ([3]; scaffold, no apo/holo stated) was 6.26 ± 0.23.

B4: mApple K198D: mApple variant, SEQ ID NO: 23 (protein)
chain: EENNMAIIKEFMRFKVHMEGSVNGHEFEIEGEGEGRPYEAFQTAKLKVTKGGPLPFAWDILSPQFMYGSKVYIKHPADIPDYFKLSFPEGFRWERVMNFEDGGIIHVNQDSSLQDGVFIYKVKLRGTNFPSDGPVMQKKTMGWEASEERMYPEDGALKSEIKKRLKLKDGGHYAAEVKTTYKAKKPVQLPGAYIVDIDLDIVSHNEDYTIVEQYERAEGRHSTGGMDELYK
For B4, the Fmax/Fmin ([1]; EGFP and mApple variants) was 1.17, the Aholo/Aapo [1] was 1.41 (569) and the Brightness ([2]; Apo) was 0.32 ± 0.01. For the same molecule, the “Extinction coefficient” value ([2]; Apo) was 59000 M⁻¹ cm⁻¹, the Fluorescence quantum yield ([2]; Apo) was 0.54 ± 0.01 and the Brightness ([2]; Holo) was 0.42 ± 0.03. The “Extinction coefficient” value ([2]; Holo) was 69000 M⁻¹ cm⁻¹, the Fluorescence quantum yield ([2]; Holo) was 0.61 ± 0.03 and the pka ([3]; Apo) was 6.68 ± 0.09. The pka ([3]; Holo) was 6.90 ± 0.12.

B5: mApple K198D/R216D: mApple variant, SEQ ID NO: 24 (protein)
chain: EENNMAIIKEFMRFKVHMEGSVNGHEFEIEGEGEGRPYEAFQTAKLKVTKGGPLPFAWDILSPQFMYGSKVYIKHPADIPDYFKLSFPEGFRWERVMNFEDGGIIHVNQDSSLQDGVFIYKVKLRGTNFPSDGPVMQKKTMGWEASEERMYPEDGALKSEIKKRLKLKDGGHYAAEVKTTYKAKKPVQLPGAYIVDIDLDIVSHNEDYTIVEQYEDAEGRHSTGGMDELYK
For B5, the Fmax/Fmin ([1]; EGFP and mApple variants) was 2.48, the Aholo/Aapo [1] was 2.21 (569) and the Brightness ([2]; Apo) was 0.15 ± 0.01. The “Extinction coefficient” value ([2]; Apo) was 38000 M⁻¹ cm⁻¹, the Fluorescence quantum yield ([2]; Apo) was 0.40 ± 0.01 and the Brightness ([2]; Holo) was 0.37 ± 0.01. The “Extinction coefficient” value ([2]; Holo) was 65000 M⁻¹ cm⁻¹, the Fluorescence quantum yield ([2]; Holo) was 0.58 ± 0.01 and the pka ([3]; Apo) was 7.04 ± 0.11. It also gave a pka ([3]; Holo) of 6.56 ± 0.11.

B6: mApple A145D/K198D/R216E: mApple variant, SEQ ID NO: 26 (protein)
chain: EENNMAIIKEFMRFKVHMEGSVNGHEFEIEGEGEGRPYEAFQTAKLKVTKGGPLPFAWDILSPQFMYGSKVYIKHPADIPDYFKLSFPEGFRWERVMNFEDGGIIHVNQDSSLQDGVFIYKVKLRGTNFPSDGPVMQKKTMGWEDSEERMYPEDGALKSEIKKRLKLKDGGHYAAEVKTTYKAKKPVQLPGAYIVDIDLDIVSHNEDYTIVEQYEEAEGRHSTGGMDELYK
With B6 the Fmax/Fmin ([1]; EGFP and mApple variants) was 3.75 and the Aholo/Aapo [1] was 1.57 (569).

B7: mApple A145E/E147D/K198D/R216E: mApple variant, SEQ ID NO: 27 (protein)
chain: EENNMAIIKEFMRFKVHMEGSVNGHEFEIEGEGEGRPYEAFQTAKLKVTKGGPLPFAWDILSPQFMYGSKVYIKHPADIPDYFKLSFPEGFRWERVMNFEDGGIIHVNQDSSLQDGVFIYKVKLRGTNFPSDGPVMQKKTMGWEESDERMYPEDGALKSEIKKRLKLKDGGHYAAEVKTTYKAKKPVQLPGAYIVDIDLDIVSHNEDYTIVEQYEEAEGRHSTGGMDELYK
In the case of B7, the Fmax/Fmin ([1]; EGFP and mApple variants) is reported as 4.43 and the Aholo/Aapo [1] is reported as 1.66 (569).

B8: mApple A145D/E147D/K198D/R216E: mApple variant, SEQ ID NO: 28 (protein)
chain: EENNMAIIKEFMRFKVHMEGSVNGHEFEIEGEGEGRPYEAFQTAKLKVTKGGPLPFAWDILSPQFMYGSKVYIKHPADIPDYFKLSFPEGFRWERVMNFEDGGIIHVNQDSSLQDGVFIYKVKLRGTNFPSDGPVMQKKTMGWEDSDERMYPEDGALKSEIKKRLKLKDGGHYAAEVKTTYKAKKPVQLPGAYIVDIDLDIVSHNEDYTIVEQYEEAEGRHSTGGMDELYK
In the case of B8, the Fmax/Fmin ([1]; EGFP and mApple variants) is reported as 3.23 and the Aholo/Aapo [1] is reported as 1.84 (569).

B9: mApple A145E/K198D/R216E/E218D: mApple variant, SEQ ID NO: 29 (protein)
chain: EENNMAIIKEFMRFKVHMEGSVNGHEFEIEGEGEGRPYEAFQTAKLKVTKGGPLPFAWDILSPQFMYGSKVYIKHPADIPDYFKLSFPEGFRWERVMNFEDGGIIHVNQDSSLQDGVFIYKVKLRGTNFPSDGPVMQKKTMGWEESEERMYPEDGALKSEIKKRLKLKDGGHYAAEVKTTYKAKKPVQLPGAYIVDIDLDIVSHNEDYTIVEQYEEADGRHSTGGMDELYK
With B9 the Fmax/Fmin ([1]; EGFP and mApple variants) was 2.64 and the Aholo/Aapo [1] was 1.59 (569).

B10: mApple A145E/K198E/R216E: mApple variant, SEQ ID NO: 30 (protein)
chain: EENNMAIIKEFMRFKVHMEGSVNGHEFEIEGEGEGRPYEAFQTAKLKVTKGGPLPFAWDILSPQFMYGSKVYIKHPADIPDYFKLSFPEGFRWERVMNFEDGGIIHVNQDSSLQDGVFIYKVKLRGTNFPSDGPVMQKKTMGWEESEERMYPEDGALKSEIKKRLKLKDGGHYAAEVKTTYKAKKPVQLPGAYIVDIELDIVSHNEDYTIVEQYEEAEGRHSTGGMDELYK
With B10 the Fmax/Fmin ([1]; EGFP and mApple variants) was 2.15 and the Aholo/Aapo [1] was 1.04 (569).
